Molecular target: Gβγ (βγ subunit of the heterotrimeric G protein) (rabbit)
Test: cell-based or functional assay

Question: “βARKCT (βARK-1-(495-689) polypeptide; Met-Gly495-Leu689 of bovine β-adrenergic receptor kinase-1) (from UniProt P21146 495-689)” was tested. Which EGF activation of MAP kinase in cultured vascular smooth muscle cells (versus empty virus treated cells) did it give?
Answer: Its EGF activation of MAP kinase in cultured vascular smooth muscle cells (versus empty virus treated cells) is -7%.

Question: And the LPA activation of MAP kinase in cultured vascular smooth muscle cells (versus empty virus treated cells)?
Answer: The LPA activation of MAP kinase in cultured vascular smooth muscle cells (versus empty virus treated cells) was -58%.

Question: What about the basal MAP kinase activity in cultured vascular smooth muscle cells (versus empty virus treated cells) of the same substance?
Answer: The basal MAP kinase activity in cultured vascular smooth muscle cells (versus empty virus treated cells) was 18%.

Question: What about the serum activation of MAP kinase in cultured vascular smooth muscle cells (versus empty virus treated cells) of the same substance?
Answer: Its serum activation of MAP kinase in cultured vascular smooth muscle cells (versus empty virus treated cells) is -38%.
